According to article PMC7107572:

Columns and labels:
[1] = pyruvate kinase activity, HeLa lysate; conditions: glycan gained; control: vector and OGTcd
[2] = exogenous PKM2 protein level in xenograft tumors; conditions: glycan lost; control: PKM2wt tumors
[3] = residual medium glucose normalised to cell number; conditions: glycan lost; control: PKM2wt cells
[4] = IP of HN-PKM2, anti-acetyl-lysine blot, 25 mM glucose; conditions: glycan lost; control: PKM2wt
[5] = basal ECAR, Seahorse XF24; conditions: glycan lost; control: PKM2wt cells
[6] = LDH-coupled pyruvate kinase assay, PEP titration, HeLa; conditions: glycan lost; control: PKM2wt
[7] = sucrose density gradient ultracentrifugation, anti-Flag blot; conditions: glycan lost; control: PKM2wt

Question: With “pyruvate kinase M2 (PKM2): OGTwt overexpression” as the substance, how does the enzymatic_activity [1] read?
Answer: The enzymatic_activity was “decreases”.

Question: For pyruvate kinase M2 (PKM2): S362A, which expression_or_secretion [2] is on record?
Answer: Its expression_or_secretion is “no change”.

Question: And the “other: cellular glucose consumption” value [3]?
Answer: Its value is “decreases”.

Question: And the “other: OGA-induced lysine acetylation” value [4]?
Answer: The value was “no change”.

Question: What about the “other: glycolytic flux” value [5] of the same substance?
Answer: The value was “decreases”.

Question: And the enzymatic_activity [6]?
Answer: The enzymatic_activity was “increases”.

Question: And the oligomerisation [7]?
Answer: The oligomerisation was “increases”.

Question: With pyruvate kinase M2 (PKM2): T365A as the substance, how does the expression_or_secretion [2] read?
Answer: Its expression_or_secretion is “no change”.

Question: And the “other: cellular glucose consumption” value [3]?
Answer: Its value is “decreases”.

Question: What about the “other: glycolytic flux” value [5] of the same substance?
Answer: The value was “decreases”.

Question: And the enzymatic_activity [6]?
Answer: Its enzymatic_activity is “increases”.

Question: What about the oligomerisation [7] of the same substance?
Answer: The oligomerisation was “increases”.
